According to IntAct's records for PubMed 29892012:

B1: Transmembrane protein 218 (Homo sapiens), A2RU14 (parent)
chain: MAGTVLGVGAGVFILALLWVAVLLLCVLLSRASGAARFSVIFLFFGAVIITSVLLLFPRAGEFPAPEVEVKIVDDFFIGRYVLLAFLSAIFLGGLFLVLIHYVLEPIYAKPLHSY
B2: Coiled-coil alpha-helical rod protein 1 (Homo sapiens), Q8TD31 (parent)
chain: MFPPSGSTGLIPPSHFQARPLSTLPRMAPTWLSDIPLVQPPGHQDVSERRLDTQRPQVTMWERDVSSDRQEPGRRGRSWGLEGSQALSQQAEVIVRQLQELRRLEEEVRLLRETSLQQKMRLEAQAMELEALARAEKAGRAEAEGLRAALAGAEVVRKNLEEGSQRELEEVQRLHQEQLSSLTQAHEEALSSLTSKAEGLEKSLSSLETRRAGEAKELAEAQREAELLRKQLSKTQEDLEAQVTLVENLRKYVGEQVPSEVHSQTWELERQKLLETMQHLQEDRDSLHATAELLQVRVQSLTHILALQEEELTRKVQPSDSLEPEFTRKCQSLLNRWREKVFALMVQLKAQELEHSDSVKQLKGQVASLQEKVTSQSQEQAILQRSLQDKAAEVEVERMGAKGLQLELSRAQEARRRWQQQTASAEEQLRLVVNAVSSSQIWLETTMAKVEGAAAQLPSLNNRLSYAVRKVHTIRGLIARKLALAQLRQESCPLPPPVTDVSLELQQLREERNRLDAELQLSARLIQQEVGRAREQGEAERQQLSKVAQQLEQELQQTQESLASLGLQLEVARQGQQESTEEAASLRQELTQQQELYGQALQEKVAEVETRLREQLSDTERRLNEARREHAKAVVSLRQIQRRAAQEKERSQELRRLQEEARKEEGQRLARRLQELERDKNLMLATLQQEGLLSRYKQQRLLTVLPSLLDKKKSVVSSPRPPECSASAPVAAAVPTRESIKGSLSVLLDDLQDLSEAISKEEAVCQGDNLDRCSSSNPQMSS
partner: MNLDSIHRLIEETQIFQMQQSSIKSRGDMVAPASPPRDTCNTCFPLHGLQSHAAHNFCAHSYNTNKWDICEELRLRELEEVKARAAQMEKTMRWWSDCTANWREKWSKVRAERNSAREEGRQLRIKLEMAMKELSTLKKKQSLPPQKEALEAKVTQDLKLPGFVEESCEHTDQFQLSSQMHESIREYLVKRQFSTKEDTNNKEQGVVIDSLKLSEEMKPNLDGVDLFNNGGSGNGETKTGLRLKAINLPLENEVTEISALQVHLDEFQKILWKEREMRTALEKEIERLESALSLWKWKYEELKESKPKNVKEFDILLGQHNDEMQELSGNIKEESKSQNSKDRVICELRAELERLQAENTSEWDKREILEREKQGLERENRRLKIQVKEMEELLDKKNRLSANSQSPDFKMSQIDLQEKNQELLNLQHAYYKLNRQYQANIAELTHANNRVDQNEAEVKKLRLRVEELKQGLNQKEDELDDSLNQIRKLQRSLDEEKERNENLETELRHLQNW
B3: Ribonuclease inhibitor (Homo sapiens), P13489 (parent)
chain: MSLDIQSLDIQCEELSDARWAELLPLLQQCQVVRLDDCGLTEARCKDISSALRVNPALAELNLRSNELGDVGVHCVLQGLQTPSCKIQKLSLQNCCLTGAGCGVLSSTLRTLPTLQELHLSDNLLGDAGLQLLCEGLLDPQCRLEKLQLEYCSLSAASCEPLASVLRAKPDFKELTVSNNDINEAGVRVLCQGLKDSPCQLEALKLESCGVTSDNCRDLCGIVASKASLRELALGSNKLGDVGMAELCPGLLHPSSRLRTLWIWECGITAKGCGDLCRVLRAKESLKELSLAGNELGDEGARLLCETLLEPGCQLESLWVKSCSFTAACCSHFSSVLAQNRFLLELQISNNRLEDAGVRELCQGLGQPGSVLRVLWLADCDVSDSSCSSLAATLLANHSLRELDLSNNCLGDAGILQLVESVRQPGCLLEQLVLYDIYWSEEMEDRLQALEKDKPSLRVIS
B4: Ribosome assembly protein METTL17, mitochondrial (Homo sapiens), Q9H7H0 (parent)
chain: MAAALKCLLTLGRWCPGLGVAPQARALAALVPGVTQVDNKSGFLQKRPHRQHPGILKLPHVRLPQALANGAQLLLLGSAGPTMENQVQTLTSYLWSRHLPVEPEELQRRARHLEKKFLENPDLSQTEEKLRGAVLHALRKTTYHWQELSYTEGLSLVYMAARLDGGFAAVSRAFHEIRARNPAFQPQTLMDFGSGTGSVTWAAHSIWGQSLREYMCVDRSAAMLVLAEKLLKGGSESGEPYIPGVFFRQFLPVSPKVQFDVVVSAFSLSELPSKADRTEVVQTLWRKTGHFLVLVENGTKAGHSLLMDARDLVLKGKEKSPLDPRPGFVFAPCPHELPCPQLTNLACSFSQAYHPIPFSWNKKPKEEKFSMVILARGSPEEAHRWPRITQPVLKRPRHVHCHLCCPDGHMQHAVLTARRHGRDLYRCARVSSWGDLLPVLTPSAFPPSTAQDPSES
partner: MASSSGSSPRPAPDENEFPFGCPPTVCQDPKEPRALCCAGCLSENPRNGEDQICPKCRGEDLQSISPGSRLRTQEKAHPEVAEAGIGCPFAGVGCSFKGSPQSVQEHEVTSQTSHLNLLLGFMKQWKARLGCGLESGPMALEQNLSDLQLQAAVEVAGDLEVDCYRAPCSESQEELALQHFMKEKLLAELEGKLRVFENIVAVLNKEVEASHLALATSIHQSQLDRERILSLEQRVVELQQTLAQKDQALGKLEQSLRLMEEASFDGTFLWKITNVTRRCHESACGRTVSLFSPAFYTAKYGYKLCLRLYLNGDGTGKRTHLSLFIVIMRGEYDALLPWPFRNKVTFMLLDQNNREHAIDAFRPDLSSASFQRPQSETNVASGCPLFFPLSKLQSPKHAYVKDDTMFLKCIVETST
B5: TBC1 domain family member 22B (Homo sapiens), Q9NU19 (parent)
chain: MAAENSKQFWKRSAKLPGSIQPVYGAQHPPLDPRLTKNFIKERSKVNTVPLKNKKASSFHEFARNTSDAWDIGDDEEEDFSSPSFQTLNSKVALATAAQVLENHSKLRVKPERSQSTTSDVPANYKVIKSSSDAQLSRNSSDTCLRNPLHKQQSLPLRPIIPLVARISDQNASGAPPMTVREKTRLEKFRQLLSSQNTDLDELRKCSWPGVPREVRPITWRLLSGYLPANTERRKLTLQRKREEYFGFIEQYYDSRNEEHHQDTYRQIHIDIPRTNPLIPLFQQPLVQEIFERILFIWAIRHPASGYVQGINDLVTPFFVVFLSEYVEEDVENFDVTNLSQDMLRSIEADSFWCMSKLLDGIQDNYTFAQPGIQKKVKALEELVSRIDEQVHNHFRRYEVEYLQFAFRWMNNLLMRELPLRCTIRLWDTYQSEPEGFSHFHLYVCAAFLIKWRKEILDEEDFQGLLMLLQNLPTIHWGNEEIGLLLAEAYRLKYMFADAPNHYRR
partner: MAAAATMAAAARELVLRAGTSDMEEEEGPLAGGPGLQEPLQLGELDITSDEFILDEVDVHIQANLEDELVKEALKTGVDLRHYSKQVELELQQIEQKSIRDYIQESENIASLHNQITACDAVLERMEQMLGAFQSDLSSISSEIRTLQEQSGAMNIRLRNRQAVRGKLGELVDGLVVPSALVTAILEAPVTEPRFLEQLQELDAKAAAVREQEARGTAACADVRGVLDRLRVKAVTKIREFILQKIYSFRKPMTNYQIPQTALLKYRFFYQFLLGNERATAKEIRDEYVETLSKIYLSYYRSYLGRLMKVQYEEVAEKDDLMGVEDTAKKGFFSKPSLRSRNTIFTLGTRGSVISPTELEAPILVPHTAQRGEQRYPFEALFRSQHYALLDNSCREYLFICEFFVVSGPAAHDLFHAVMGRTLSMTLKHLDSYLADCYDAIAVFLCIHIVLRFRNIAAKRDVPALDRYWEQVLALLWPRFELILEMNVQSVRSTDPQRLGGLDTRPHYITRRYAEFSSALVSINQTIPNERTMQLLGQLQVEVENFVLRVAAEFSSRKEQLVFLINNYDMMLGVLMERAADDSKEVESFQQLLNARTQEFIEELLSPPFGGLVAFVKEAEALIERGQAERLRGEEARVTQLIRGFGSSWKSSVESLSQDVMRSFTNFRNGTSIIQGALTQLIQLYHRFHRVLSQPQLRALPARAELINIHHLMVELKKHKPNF

Variants of: B1
Conditions: with pcna_human PCNA

**Q.** For P66S, which “effect of a mutation on the interaction” value is on record?
**A.** with no effect

Variants of: B2
Conditions: with CCDC102B

**Q.** Which “effect of a mutation on the interaction” value does the source give for W337R here?
**A.** disrupting interaction strength

Variants of: B3
Conditions: with sdcb1_human SDCBP

**Q.** V358M was tested. Which “effect of a mutation on the interaction” value did it give?
**A.** with no effect

Variants of: B4
Conditions: with traf1_human TRAF1, Q13077

**Q.** R212H was tested. Which “effect of a mutation on the interaction” value did it give?
**A.** with no effect

Variants of: B5
Conditions: with vps52_human VPS52, Q8N1B4

**Q.** How did the “effect of a mutation on the interaction” value turn out when A349T was run?
**A.** disrupting interaction strength
